Laboratory results from article PMC3701577, “Characterization of DNA Binding Property of the HIV-1 Host Factor and Tumor Suppressor Protein Integrase Interactor 1 (INI1/hSNF5)”.

B1: U5 HIV-1 LTR DNA (U5.4/U5.5) (dsDNA)
DNA 1: ACTGCTAGAGATTTTCCGGATCC
DNA 2: GGATCCGGAAAATCTCTAGCA

Experiments:
[1] = target: INI1 DNA binding domain (INI1/hSNF5 amino acids 105-183) (human) (UniProt Q12824); test: AUC; sedimentation equilibrium, 60 µM INI1 DBD (monomer concentration), 4°C, 13,000-28,000 rpm, 20 mM HEPES-KOH pH 7.2, 100 mM KCl, 5-7% glycerol, 1 mM DTT, absorbance at 280 nm; species analysis in SEDPHAT
SNR1 DBD, SNR1(90-167) = target: T1, SNR1 DBD, SNR1(90-167) (Drosophila melanogaster, UniProt Q7K0F9 90-167); test: Ni-NTA pull-down; 55 uM dimer, 110 uM DNA; ITC at 25 C (buffer not stated in material; protein dialyzed in 20 mM HEPES pH 7.2, 100 mM KCl, 10% glycerol, 0.1 mM EDTA, 1 mM DTT); pull-down in 20 mM HEPES pH 7.2, 100 mM KCl, 5% glycerol, 1 mM DTT, RT 30 min then ice; conditions: protein: recombinant; tags: His tag (pET28a), 37-aa N-terminal extension; chain copies: 2; 5' overhang 2 nt on strand 1 (AC)
T1 sequence: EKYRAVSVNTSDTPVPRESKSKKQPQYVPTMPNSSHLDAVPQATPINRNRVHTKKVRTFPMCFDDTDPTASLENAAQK

INI1 DBD, INI1(105-183) = INI1 DBD, INI1(105-183) (human, UniProt Q12824 105-183); test: ITC; 10 uM monomer, 55 uM DNA in syringe; one-site, N=0.49; ITC at 25 C (buffer not stated in material; protein dialyzed in 20 mM HEPES pH 7.2, 100 mM KCl, 10% glycerol, 0.1 mM EDTA, 1 mM DTT); pull-down in 20 mM HEPES pH 7.2, 100 mM KCl, 5% glycerol, 1 mM DTT, RT 30 min then ice; conditions: protein: recombinant; tags: His tag (pET28a), 24-aa N-terminal extension; 5' overhang 2 nt on strand 1 (AC)
Sequence of INI1 DBD, INI1(105-183) (Q12824 105-183): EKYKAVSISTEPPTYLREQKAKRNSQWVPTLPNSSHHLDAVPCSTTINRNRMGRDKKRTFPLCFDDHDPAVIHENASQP

[2] = target: INI1 DBD dimer, INI1(105-183) (human, UniProt Q12824 105-183); test: ITC; 30 uM dimer, 325 uM DNA in syringe; sequential model, first binding event; ITC at 25 C (buffer not stated in material; protein dialyzed in 20 mM HEPES pH 7.2, 100 mM KCl, 10% glycerol, 0.1 mM EDTA, 1 mM DTT); pull-down in 20 mM HEPES pH 7.2, 100 mM KCl, 5% glycerol, 1 mM DTT, RT 30 min then ice; conditions: protein: recombinant; tags: His tag (pET28a), 24-aa N-terminal extension; chain copies: 2; 5' overhang 2 nt on strand 1 (AC)
Sequence of INI1 DBD dimer, INI1(105-183) (Q12824 105-183): as above

Row | Molecule | stoichiometry N [1] | binding result (SNR1 DBD, SNR1(90-167)) | Kd (INI1 DBD, INI1(105-183)) [µM] | Kd [2] [µM]
1 | INI1 DNA binding domain (INI1/hSNF5 amino acids 105-183) (from UniProt Q12824 105-183) (domain or fragment) | 2 |  |  | 
2 | B1 |  | binds | 0.94 ± 0.02 | 222 ± 51.8
